In patent US20110311601A1, “ANTIMICROBIAL MEDICAL DEVICES” (priority 2010, published 2011):
Changes are numbered by the printed parent chain. Where no end group is shown, it is not given here.

Key:
[1] = test system: Escherichia coli strain DB3.1; test: microdilution assay of hβD2 coated biopolymers (percentage killing); assay type: cell-based; settings: blocking substance alone, without hβD2
Protocol: Microdilution assay. In the microdilution assay the microorganisms were exposed to a potential bio-active substance in liquid surrounding, thus free to move. This potential bio-active substance was either homogenously dispersed in the liquid surrounding by active mixing at the beginning of the tests or could spread out of the sample during incubation time. The bioactivity was measured in percentage killing, wherein the number of colony forming units (CFU) in a control without test substance was set to 0% killing and a reduction in the cell number to zero was set to 100% killing.
Fresh cells were harvested by centrifugation at 1600 rpm for 10 min, the supernatant was removed and the cell pellet was resuspended in 5 ml 10 mM sodium phosphate buffer. This procedure was repeated twice. The optical density was adjusted to OD600 of 0.500 with 10 mM sodium phosphate buffer. 100 μl of the bacterial suspension was pipetted in one well of a microtiter plate without optimized surface. 10 μl test substance or test sample was added. In case of a test substance, the mixture was homogenized by absorbing the mixture several times with a pipette. The microtiter plate is then closed with parafilm and incubated at 37° C. for 2 h. After incubation the substances in the wells were mixed by a pipette. […] For evaluation, the grown colonies were counted.
The microdilution assay facilitates the examination of the hβD2 release kinetics of the biopolymers and thus allowed conclusions on what amounts of hβD2 in which time could be released. For comparing on evaluation of the assay the effect of directly applied hβD2 amounts with the effect of hβD2 amounts applied on biopolymers, the achieved percentage killing of bacteria was compared to the killing rate of the hβD2 standard series in the microdilution assays.
The collagen scaffolds and polylactide matrices were examined in the microdilution assay regarding their hβD2 release kinetics. Since the incubation time of the samples in the bacterial suspension is limited, the samples were stored at −25° C. after the test and until completion of a further assay. The thawed samples were then used in a new assay and were incubated again.

[2] = test system: gram-positive bacteria; settings: covalently attached onto titanium surfaces, in vitro; cited from earlier work
[3] = target: collagen scaffold (bovine collagen type I) (bovine, UniProt P02453 162-1217; P02465 80-1117, limits assumed); test: cell-based or functional assay
collagen scaffold (bovine collagen type I), sequence (P02453 162-1217 limits assumed, chain 1 of 2): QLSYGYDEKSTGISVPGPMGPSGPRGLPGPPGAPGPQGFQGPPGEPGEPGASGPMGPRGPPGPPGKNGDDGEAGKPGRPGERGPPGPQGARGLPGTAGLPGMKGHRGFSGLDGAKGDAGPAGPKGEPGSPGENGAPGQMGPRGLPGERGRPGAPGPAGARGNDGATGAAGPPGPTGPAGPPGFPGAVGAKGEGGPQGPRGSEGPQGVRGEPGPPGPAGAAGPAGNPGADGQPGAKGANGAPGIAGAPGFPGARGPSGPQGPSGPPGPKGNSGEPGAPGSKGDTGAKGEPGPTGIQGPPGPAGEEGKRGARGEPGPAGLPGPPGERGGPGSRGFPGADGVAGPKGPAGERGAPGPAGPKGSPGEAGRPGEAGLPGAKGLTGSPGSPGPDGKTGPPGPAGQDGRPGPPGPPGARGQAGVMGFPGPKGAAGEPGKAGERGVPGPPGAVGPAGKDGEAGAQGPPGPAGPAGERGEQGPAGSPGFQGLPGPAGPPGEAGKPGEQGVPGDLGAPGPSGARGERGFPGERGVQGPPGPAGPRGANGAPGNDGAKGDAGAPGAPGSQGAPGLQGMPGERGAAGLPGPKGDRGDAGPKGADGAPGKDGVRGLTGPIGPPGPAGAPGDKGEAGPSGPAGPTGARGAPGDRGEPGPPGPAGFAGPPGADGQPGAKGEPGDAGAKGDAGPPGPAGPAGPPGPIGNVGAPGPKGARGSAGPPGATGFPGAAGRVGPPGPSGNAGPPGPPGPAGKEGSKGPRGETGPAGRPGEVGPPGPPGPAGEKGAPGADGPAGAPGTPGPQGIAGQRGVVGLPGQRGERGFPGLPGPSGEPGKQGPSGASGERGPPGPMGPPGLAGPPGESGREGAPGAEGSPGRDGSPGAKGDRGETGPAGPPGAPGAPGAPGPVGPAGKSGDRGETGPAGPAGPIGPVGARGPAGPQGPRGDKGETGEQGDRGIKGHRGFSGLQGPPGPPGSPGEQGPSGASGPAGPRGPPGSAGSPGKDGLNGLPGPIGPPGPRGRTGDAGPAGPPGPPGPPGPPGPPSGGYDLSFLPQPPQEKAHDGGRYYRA
collagen scaffold (bovine collagen type I), sequence (P02465 80-1117 limits assumed, chain 2 of 2): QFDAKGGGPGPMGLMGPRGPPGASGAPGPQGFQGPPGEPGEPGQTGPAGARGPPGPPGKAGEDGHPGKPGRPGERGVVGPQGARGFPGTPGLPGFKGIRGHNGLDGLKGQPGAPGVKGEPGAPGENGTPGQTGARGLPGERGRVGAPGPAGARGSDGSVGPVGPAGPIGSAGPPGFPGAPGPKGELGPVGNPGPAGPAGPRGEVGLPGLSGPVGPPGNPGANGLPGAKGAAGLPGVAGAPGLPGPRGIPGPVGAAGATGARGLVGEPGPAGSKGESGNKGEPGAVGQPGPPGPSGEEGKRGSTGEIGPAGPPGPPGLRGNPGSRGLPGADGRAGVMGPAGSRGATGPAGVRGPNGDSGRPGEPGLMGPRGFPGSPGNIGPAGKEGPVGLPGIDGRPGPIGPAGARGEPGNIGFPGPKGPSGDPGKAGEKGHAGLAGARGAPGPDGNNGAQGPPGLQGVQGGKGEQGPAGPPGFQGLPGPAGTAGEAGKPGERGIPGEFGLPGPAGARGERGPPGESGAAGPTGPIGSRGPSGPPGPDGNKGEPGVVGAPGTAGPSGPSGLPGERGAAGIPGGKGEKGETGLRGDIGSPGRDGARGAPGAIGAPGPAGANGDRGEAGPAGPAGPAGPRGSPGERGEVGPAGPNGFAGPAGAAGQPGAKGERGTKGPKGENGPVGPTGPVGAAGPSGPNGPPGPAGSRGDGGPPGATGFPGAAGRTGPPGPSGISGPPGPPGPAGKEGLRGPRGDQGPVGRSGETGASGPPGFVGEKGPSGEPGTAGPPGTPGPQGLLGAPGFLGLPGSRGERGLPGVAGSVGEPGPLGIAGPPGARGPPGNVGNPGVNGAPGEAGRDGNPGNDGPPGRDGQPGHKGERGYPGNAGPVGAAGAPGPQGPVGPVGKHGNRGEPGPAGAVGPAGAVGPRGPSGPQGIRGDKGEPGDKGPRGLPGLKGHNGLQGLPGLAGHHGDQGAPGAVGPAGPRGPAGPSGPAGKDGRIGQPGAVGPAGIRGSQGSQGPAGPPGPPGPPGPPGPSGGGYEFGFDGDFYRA

[4] = test system: Escherichia coli strain DB3.1; test: micro-dilution assay of coated titanium pins and peptide controls (bacterial killing, CFU); assay type: cell-based; settings: for antibacterial activity, killing: 10 μg coated on SAM 1, SAM 2, SAM 3 titanium pins, 2 h
Protocol: In a first experiment 10 μg of hβD2 was coated to three different SAM Hexadecyltrimethoxysilane (SAM 1), Dimethoxymethyloctylsilane (SAM 2), and oxidized Allyltrimethoxysilane (SAM 3) of the modified titanium pins. The anti-bacterial activity of the hβD2-coated pins was tested by a micro-dilution assay. Therefore, Escherichia coli strain DB3.1 (Invitrogen, Cat. No. 11782-018) was used. E. coli was streaked from a glycerol stock onto a Brain Heart Infusion (BHI) agar plate (3.7% (w/v) BHI Bouillon, 1.5% (w/v) Agar), grown overnight at 37° C. and subsequently used to inoculate 40 ml of 3.7% (w/v) BHI Bouillon without any antibiotics in 100 ml flasks. Fresh cells were harvested by centrifugation at 16000 rpm for 10 min and washed twice with 10 mM sodium phosphate buffer, pH 7.2. The optical density was adjusted to 10^4 cells/ml. For anti-bacterial testing, a single pin coated with hβD2 was incubated in one well of a microtiter plate containing 100 μl of the bacterial suspension.
Functionalized titanium pins without hβD2 served as negative controls (SAM1-n, SAM2-n, SAM3-n, SAM4::Col-NHS-n, SAM4::Col-Glu-n). In addition, 5 independent control reactions consisting of hβD2 in a final amount of 0 (NC), 0.02 (PC1), 0.2 (PC2), 2 (PC3) and 10 (PC4) μg were examined in parallel. To determine the specificity of the anti-bacterial activity of hβD2, 10 μl (10 μg/ml in PBS) of polyclonal monospecific anti-hβD2 antibodies were co-incubated with 10 μg of hβD2 and bacterial cells (Table I, PC4/ab).
The microtiter plates were incubated for 2 h at 37° C. The kinetic studies were performed by replacing the bacterial suspension, after 2 h of cultivation with a freshly pre-cultured E. coli solution, which contained the same bacterial concentration, and cultivating for another 2 h and so on. Colony forming units (CFU) were determined after plating 100 μl of a 1:100 dilution of the bacterial suspension on petri dishes with BHI medium and incubating them overnight at 37° C. For every group of the functionalized titanium pins and the controls, 5 independent anti-bacterial assays were performed. A control (NC) of bacterial growth was examined for every independent assay. The number of CFU on the control (consisting of a single petri dish) was set to 0% bactericidal activity. The reduction in the CFU resulting from the anti-bacterial activity of hβD2 was related to the absolute CFU of the control within every independent assay. This value, given as a percentage of the bacterial “killing” activity, was used to describe the antibacterial activity. This kind of normalisation of the antibacterial data was performed for every experimental group.
To examine the release behavior of hβD2 that is adsorbed by different SAM modified titanium pins a time kinetic experiment was performed. The experiment was performed analogous to Example 2. For this experiment 80 μg of hβD2 was adsorbed to three different SAMs Hexadecyltrimethoxysilane (SAM1), Dimethoxymethyloctylsilane (SAM2), and oxidized Allyltrimethoxysilane (SAM3) of the modified titanium pins.
Since it is known that collagen has a positive impact on wound healing, functionalised titanium pins with collagen were investigated. Two different cross-linking strategies for collagen on SAM3 and SAM4 were applied as described in Example 1: (i) a covalently binding strategy with the NHS/EDC cross-linking system, and (ii) the use of glutaraldehyde. Successful binding of collagen was monitored by collagen-specific DirectRed staining (as described in Example 1). […] Additionally 80 μg hβD2 was adsorbed to collagen functionalized SAM3 and SAM4 modified titanium pins, respectively. For monitoring the antibacterial activity of the bio-coated pins the experiment was performed analogous to Example 3. […]

[5] = 80 μg adsorbed on SAM3 titanium pins, 6 h
[6] = 80 μg on collagen SAM4 pins, NHS/EDC-system, 4 h
[7] = 80 μg on collagen SAM4 pins, NHS/EDC-system, 6 h
[8] = 80 μg on collagen SAM4 pins, glutaraldehyde, 4 h
[9] = 80 μg on collagen SAM4 pins, glutaraldehyde, 6 h

N[C@@H](CCC(=O)O)C(=O)O [L-glutamic acid, reference compound]
self-activity (killing / reduction of the number of bacteria) [1]: 4%

NCCCC[C@H](N)C(=O)O [L-lysine, reference compound]
self-activity (killing / reduction of the number of bacteria) [1]: 4%

O=C([O-])CC(O)(CC(=O)[O-])C(=O)[O-].[Na+].[Na+].[Na+] [Sodium citrate, sodium citrate, reference compound]
self-activity (killing / reduction of the number of bacteria) [1]: 100%

NCCCCNCCCN [spermidine, reference compound]
self-activity (killing / reduction of the number of bacteria) [1]: 35%

CN[C@H](CC(C)C)C(=O)N[C@H]1C(=O)N[C@@H](CC(N)=O)C(=O)N[C@H]2C(=O)N[C@H]3C(=O)N[C@H](C(=O)N[C@H](C(=O)O)c4cc(O)cc(O)c4-c4cc3ccc4O)[C@H](O)c3ccc(c(Cl)c3)Oc3cc2cc(c3O[C@@H]2O[C@H](CO)[C@@H](O)[C@H](O)[C@H]2O[C@H]2C[C@](C)(N)[C@H](O)[C@H](C)O2)Oc2ccc(cc2Cl)[C@H]1O [vancomycine]
reduced colony-forming of gram-positive bacteria [2]: up to 88%

chondroitin sulphate [reference compound]
self-activity (killing / reduction of the number of bacteria) [1]: 23%

poly-L-glutamic acid [reference compound]
self-activity (killing / reduction of the number of bacteria) [1]: no self-activity

poly-L-lysine [reference compound]
self-activity (killing / reduction of the number of bacteria) [1]: 100%

GIGDPVTCLKSGAICHPVFCPRRYKQIGTCGLPGTKCCKKP (ends and bridges not checked; cysteine pairing not given here) [human β-defensin-2]
hβD2 released by the scaffold (agar diffusion assay, zone of inhibition against E. coli, 10 µg hβD2 applied) [3]: 40% | hβD2 retarded by the scaffold (agar diffusion assay, zone of inhibition against E. coli, 10 µg hβD2 applied) [3]: 60%

B1: Ribonuclease 7 (protein)
chain: KPKGMTSSQWFKIQHMQPSPQACNSAMKNINKHTKRCKDLNTFLHEPFSSVAATCQTPKIACKNGDKNCHQSHGPVSLTMCKLTSGKYPNCRYKEKRQNKSYVVACKPPQKKDSQQFHLVPVHLDRVL
modifications: Homo sapien
antibacterial activity, killing [4]: about 90% | killing rate [4, 5]: 21% | killing rate [4, 6]: 49% | killing rate [4, 7]: about 22% | killing rate [4, 8]: 77% | killing rate [4, 9]: about 8%

B2: mutRNAse7: Ribonuclease 7 derivative, SEQ ID NO: 10 (protein)
chain: B1 chain with K38R, H123D
modifications: Synthetic primer
antibacterial activity, killing [4]: about 90% | killing rate ([4]; 80 μg adsorbed on SAM1 titanium pins, 6 h): ~41% | killing rate [4, 5]: 17% | killing rate [4, 6]: 53% | killing rate [4, 7]: ~17% | killing rate [4, 8]: 75% | killing rate [4, 9]: ~15%
